Where “and” joins values, the source holds several entries; their conditions need not be identical. Equal values may be shown once.
Columns and labels:
Glu17 = test: NMR; details: 25 °C; 25 mM NaCl; 20 mM HEPES (starting pH 7.2), pH adjusted with HCl/NaOH; Folded recombinant BeKdgF as purified, 0.26 mM, no substrate or ligand added; metal loading not given
Asp110 = test: NMR; details: 25 °C; 25 mM NaCl; 20 mM HEPES (starting pH 7.2), pH adjusted with HCl/NaOH; Folded recombinant BeKdgF as purified, 0.26 mM, no substrate or ligand added; metal loading not given
Glu66 = test: NMR; details: 25 °C; 25 mM NaCl; 20 mM HEPES (starting pH 7.2), pH adjusted with HCl/NaOH; Folded recombinant BeKdgF as purified, 0.26 mM, no substrate or ligand added; metal loading not given
Glu114 = test: NMR; details: 25 °C; 25 mM NaCl; 20 mM HEPES (starting pH 7.2), pH adjusted with HCl/NaOH; Folded recombinant BeKdgF as purified, 0.26 mM, no substrate or ligand added; metal loading not given
Asp21 = test: NMR; details: 25 °C; 25 mM NaCl; 20 mM HEPES (starting pH 7.2), pH adjusted with HCl/NaOH; Folded recombinant BeKdgF as purified, 0.26 mM, no substrate or ligand added; metal loading not given
Glu13 = test: NMR; details: 25 °C; 25 mM NaCl; 20 mM HEPES (starting pH 7.2), pH adjusted with HCl/NaOH; Folded recombinant BeKdgF as purified, 0.26 mM, no substrate or ligand added; metal loading not given
Asp102 = test: NMR; details: 25 °C; 25 mM NaCl; 20 mM HEPES (starting pH 7.2), pH adjusted with HCl/NaOH; Folded recombinant BeKdgF as purified, 0.26 mM, no substrate or ligand added; metal loading not given
[1] = biological target: BePL17, PL17 subfamily 2 alginate lyase from Bacteroides eggerthii DSM 20697 (Bacteroides eggerthii DSM 20697); test: SEC; elution on HiLoad Superdex 200 pg 16/600; data not shown
BeKdgF = biological target: T1, BeKdgF (Bacteroides eggerthii, UniProt A0A380Z821); test: loss of absorbance at […] nm, Michaelis-Menten fit, spontaneous conversion subtracted; assay type: biochemical; details: 50 mM HEPES, 150 mM NaCl, pH 7.0; 20 nM enzyme, no metal added; saturation not achieved (estimate); substrate made from polyM by BePL17
T1 construct: gene DW701_08695; no signal peptide; theoretical mass 14,137 Da; locus tag BACEGG_03250 inferred from gene order in PUL BACEGG_03245-03254 (PL17 = BACEGG_03249)
T1 sequence (A0A380Z821 1-114): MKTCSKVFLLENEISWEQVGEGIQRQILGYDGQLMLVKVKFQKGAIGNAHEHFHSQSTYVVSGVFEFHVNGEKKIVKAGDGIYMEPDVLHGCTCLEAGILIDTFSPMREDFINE

[2] = biological target: BeKdgF, KdgF-like metalloprotein from Bacteroides eggerthii DSM 20697 (Bacteroides eggerthii DSM 20697); test: NMR 15N relaxation (rotational correlation time from T1/T2); 0.43 mM 13C-15N-labelled BeKdgF, 25 mM Na2HPO4 pH 7.2, 50 mM NaCl, 25 °C, 800 MHz
[3] = biological target: BeKdgF, KdgF-like metalloprotein from Bacteroides eggerthii DSM 20697 (Bacteroides eggerthii DSM 20697); test: SEC-MALS; BeKdgF at 1 mg/mL, 40 ul on Superdex 200 Increase 10/300 GL, 50 mM HEPES, 150 mM NaCl, pH 7.7, ice-cold buffer, 0.5 ml/min; DAWN8+ detector; equilibrium of tetramer and dimer

## BeKdgF (KdgF-like cupin metalloprotein; annotated Unk3 in PULDB) (Bacteroides eggerthii DSM 20697)
Glu17
  pKa: 4.9±0.1
Asp110
  pKa: 5.5±0.2
Glu66
  pKa: 5.6±0.1 and 5.1±0.2
Glu114
  pKa: 5.1±0.1 and 5.2±0.1
Asp21
  pKa: 5.0±0.2
Glu13
  pKa: 5.0 ± 0.2
Asp102
  pKa: 5.9 ± 0.1

## BePL17, PL17 subfamily 2 alginate lyase from Bacteroides eggerthii DSM 20697 (enzyme)
[1]
  stoichiometry N: 2

## 4-deoxy-β-L-threo-hex-4-enopyranuronic acid [compound 1]
BeKdgF
  Km: 1140 ± 560 µM

## BeKdgF, KdgF-like metalloprotein from Bacteroides eggerthii DSM 20697 (enzyme)
[2]
  stoichiometry N: 2
[3]
  percent of the protein as dimer: 93.5%
  percent of the protein as tetramer: 6.5%
  stoichiometry N: 4 and 2

From article PMC11381880, “Action and cooperation in alginate degradation by three enzymes from the human gut bacterium Bacteroides eggerthii DSM 20697” (The Journal of Biological Chemistry, 2024)
